# Reference: publication PMC10903085 (Neurotherapeutics, 2023)
# Biological target: His-Tau-Strep (human 4R2N Tau) (human, UniProt P10636-8 1-441)
# Test: AlphaScreen or HTRF
binder,measurement,value
GST-Fyn-SH3-Strep (human Fyn-SH3 domain) (domain or fragment) not shown,binding result,binds
